# Patent US20180022822A1 (MABIMMUNE DIAGNOSTICS, published 2018)
# T1: FAP peptide 521-539 with alanine substitution at position 529 (human)
# T1 construct: also called spot 10
# T1 peptide: KMILPPQFARSKKYPLLIQ
# T2: FAP peptide 521-539 with alanine substitution at position 532 (human)
# T2 construct: also called spot 13
# T2 peptide: KMILPPQFDRSAKYPLLIQ
# T3: recombinant human Fibroblast Activation Protein (FAP) with N-terminus 6x histidine tag (human, UniProt Q12884 26-760)
# T3 construct: Bought protein; also called rFAP; rhFAP
# T3 sequence: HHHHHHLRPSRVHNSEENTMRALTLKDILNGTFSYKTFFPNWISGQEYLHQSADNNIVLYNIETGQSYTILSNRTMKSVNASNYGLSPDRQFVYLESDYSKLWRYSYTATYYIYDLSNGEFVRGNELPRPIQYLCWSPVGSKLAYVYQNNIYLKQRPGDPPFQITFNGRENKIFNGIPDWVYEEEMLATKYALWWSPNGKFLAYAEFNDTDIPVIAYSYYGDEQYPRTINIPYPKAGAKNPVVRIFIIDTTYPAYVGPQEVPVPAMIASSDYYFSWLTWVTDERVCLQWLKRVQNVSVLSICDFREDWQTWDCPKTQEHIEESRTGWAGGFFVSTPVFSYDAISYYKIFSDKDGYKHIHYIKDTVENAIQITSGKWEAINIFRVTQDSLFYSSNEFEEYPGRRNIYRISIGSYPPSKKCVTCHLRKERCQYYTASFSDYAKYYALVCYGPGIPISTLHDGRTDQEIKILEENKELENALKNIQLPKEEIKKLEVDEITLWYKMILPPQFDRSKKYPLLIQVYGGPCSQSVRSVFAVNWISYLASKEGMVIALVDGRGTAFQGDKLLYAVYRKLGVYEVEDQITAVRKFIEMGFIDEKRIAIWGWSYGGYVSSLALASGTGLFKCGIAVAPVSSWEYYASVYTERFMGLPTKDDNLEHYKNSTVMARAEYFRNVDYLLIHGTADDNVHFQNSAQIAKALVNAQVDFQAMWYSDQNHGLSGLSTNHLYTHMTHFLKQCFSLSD
# Experiments:
# [1] = biological target: T1, FAP peptide 521-539 with alanine …; assay: alanine-mutated linear peptides spotted on nitrocellulose
# Experimental: (§1) Binding capacity of the antibodies was tested on these peptides spotted onto a nitrocellulose membrane (JPT Peptide Technologies, Berlin, Germany) and using HRP-conjugated donkey anti-human IgG secondary antibody (Jackson immunoResearch, Newmarket, UK) followed by detection of HRP activity (FIGS. 4A and C). In brief, epitope mapping was performed using scans of overlapping peptides. The entire sequences of FAP were synthesized as a total of 188 linear 15-mer peptides with an 11 amino acid overlap between individual peptides. Those peptides were spotted onto nitrocellulose membranes (JPT Peptide Technologies, Berlin, Germany). The membrane was activated for 5 min in methanol and washed in TBS for 10 min at RT. Non-specific binding sites were blocked for 2 h at RT with Roti®-Block (Carl Roth GmbH+Co. KG, Karlsruhe, Germany). Human antibodies (1 μg/ml) were incubated in Roti®-Block for 3 h at RT. Binding of primary antibody was determined using HRP-conjugated donkey anti-human IgG secondary antibody. Blots were developed and evaluated using ECL and ImageQuant 350 detection (GE Healthcare, Otelfingen, Switzerland).
# [2] = biological target: T2, FAP peptide 521-539 with alanine …; assay: as above
# Experimental: as §1
# [3] = biological target: T3, recombinant human Fibroblast Activation …; assay: capture ELISA: His-tagged rFAP captured by coated anti-His antibody (sFAP)
# Experimental: For the capture ELISA, the microplates were coated with mouse anti-His monoclonal antibody (Clontech) diluted to a concentration of 3 μg/ml in PBS, the plates were then blocked, FAP or BSA were diluted to a concentration of 2 μg/ml in PBS and added to the plates to be captured. The binding efficiency of the antibodies was then tested.
# The EC₅₀ values were estimated by a non-linear regression using GraphPad Prism (San Diego, USA) software.
# [4] = biological target: T3, recombinant human Fibroblast Activation …; assay: direct ELISA: rFAP coated directly on the plate, antibody titrated, OD 450 nm
# [5] = biological target: T4, recombinant human Dipeptidyl Peptidase 8 (DPP8) (human, UniProt Q6V1X1 1-898, limits assumed); assay: ELISA: enzyme held on the plate by an anti-tag antibody, HRP-labelled NI-206.82C2 titrated [continued) E]
# T4 construct: Bought active enzyme; also called rhDPP8; BPS Bioscience 80080
# Excerpt: (§2) Active recombinant human enzymes evaluated in this assay include: Fibroblast Activation Protein (FAP; Sino Biologicals, 10464-H07H), Dipeptidyl Peptidase IV (DPPIV, BPS Bioscience 80040), Dipeptidyl Peptidase 8 (DPP8, BPS Bioscience 80080), Dipeptidyl Peptidase 9 (DPP9, BPS Bioscience 80080), and Prolyl Oligopeptidase/Prolyl Endopeptidase (POP/PREP, BPS Bioscience 80105). Each recombinant peptidase was expressed with a purification tag, and attached to the 96 well ELISA plate using either a mouse anti-Histidine antibody (CloneTech), or a mouse anti-Glutathione S-transferase (GST, Sino Biologicals, 111213-MM02) tag antibody. […] H-Gly-Pro-AMC (ATT Bioquest, 13450) was used to validate the presence and activity of DPP4, DPP9, and DPP8. Z-Gly-Pro-AMC (BaChem, 11145) was used to evaluate the activity of FAP and POP/PREP. […] Following a washing step, bound antibody was detected using 3,3′,5,5′-Tetramethylbenzidine (TMB) substrate.
# [6] = biological target: T3, recombinant human Fibroblast Activation …; assay: SPR (ProteOn): rhuFAP amine-coupled on a GLC chip, antibody injected at 106.7, 53.3, 26.7, 13.3 and 6.7 nM
# Experimental: This was achieved by varying the concentration of the activation reagents used in each channel. Three activation solutions were prepared using a threefold serial dilution of a stock mixture containing 0.4 M EDC+0.1 M sulfo-NHS and injected for 360 s. Then rhuFAP at 2.5 μg/ml in coupling buffer (10 mM HEPES, 150 mM NaCl, 3.4 mM EDTA, 0.005% Tween 20, pH 5.2) was coupled for 1020 s at 25 μL/min. Excess reactive esters were blocked for 600 s with 1 M ethanolamine hydrochoride. […] serial dilution of […] starting at 16 μg/mL (106.7 nM) was injected for 400 s at 60 μL/min. A single injection delivered a full concentration series, using buffer to complete a row of six samples and provide an in-line blank for double-referencing the response data. Association and dissociation phases were measured for 400 s and 3600 s, respectively.
# [7] = biological target: T3, recombinant human Fibroblast Activation …; assay: ELISA: rhFAP held on the plate by an anti-tag antibody, HRP-labelled NI-206.82C2 titrated, TMB, OD 450 nm [continued) E]
# Excerpt: as §2
# T4 sequence (Q6V1X1 whole entry): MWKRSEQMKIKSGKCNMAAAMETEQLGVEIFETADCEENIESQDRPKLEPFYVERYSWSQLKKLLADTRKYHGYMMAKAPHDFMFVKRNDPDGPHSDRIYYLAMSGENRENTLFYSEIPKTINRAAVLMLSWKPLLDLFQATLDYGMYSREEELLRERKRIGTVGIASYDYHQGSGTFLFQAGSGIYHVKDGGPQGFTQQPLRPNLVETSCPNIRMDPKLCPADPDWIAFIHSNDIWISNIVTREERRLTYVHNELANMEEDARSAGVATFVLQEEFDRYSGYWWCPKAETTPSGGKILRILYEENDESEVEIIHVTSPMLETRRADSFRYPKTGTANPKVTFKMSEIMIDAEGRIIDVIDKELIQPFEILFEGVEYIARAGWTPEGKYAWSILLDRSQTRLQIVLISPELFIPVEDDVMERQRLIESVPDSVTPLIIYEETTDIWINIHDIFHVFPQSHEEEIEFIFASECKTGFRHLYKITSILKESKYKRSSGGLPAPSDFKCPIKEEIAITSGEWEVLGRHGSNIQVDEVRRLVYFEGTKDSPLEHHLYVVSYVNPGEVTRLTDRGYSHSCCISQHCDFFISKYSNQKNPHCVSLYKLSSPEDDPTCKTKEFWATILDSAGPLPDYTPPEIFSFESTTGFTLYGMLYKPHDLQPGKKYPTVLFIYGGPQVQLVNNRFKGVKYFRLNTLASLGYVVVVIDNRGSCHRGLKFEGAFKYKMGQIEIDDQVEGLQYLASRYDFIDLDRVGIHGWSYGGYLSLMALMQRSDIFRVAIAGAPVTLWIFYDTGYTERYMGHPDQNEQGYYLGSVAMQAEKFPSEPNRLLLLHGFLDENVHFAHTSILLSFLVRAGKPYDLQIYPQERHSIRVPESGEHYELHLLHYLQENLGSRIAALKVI
binder,measurement,setting,value
"NI-206.82C2 (antibody, V domains shown, Recombinantly expressed as complete human IgG1 with a lambda light chain; HRP-labelled in the homologue and sandwich ELISAs, Cy5-labelled in flow cytometry; also called HRP-labelled 82C2; Cy5 labelled 82C2) VH: QVQLQQSGPGLVKPSQTLSLTCAISGDSVSSNSVTWNWIRQSPSRGLEWLGRTYYRSKWYNDYAVSVKGRITINPDTSKNQFYLQLKSVTPEDAAVYYCARDSSILYGDYWGQGTLVTVSS VL: QAVLTQPSSLSASPGASASLTCTLPSGINVGTYRIFWFQQKPGSPPQYLLSYKSDSDNHQGSGVPSRFSGSKDASANAGILLISGLQSEDEADYYCMIWHSSAWVFGGGTKLTVL",binding result,[1],no binding
same,binding result,[2],no binding
same,EC50,[3],0.014 nM
same,EC50,[4],0.608 nM
same,binding result,[5],no binding
same,Kd,[6],5.08 nM
same,koff,[6],0.000861 s⁻¹
same,kon,[6],173000 M⁻¹ s⁻¹
same,EC50 (read off the curve),[7],~0.05 nM
